Data published in article PMC9573943, “Contribution of the 12–17 hydrophobic region of islet amyloid polypeptide in self-assembly and cytotoxicity” (Frontiers in Molecular Biosciences, 2022).
“Also recorded” adds a separate entry of the source. Bridge positions count the residues as written; N and C are the ends. Ends that are not written are not given here.

Assays:
[1] = cited from earlier work
Excerpt: Countless studies have highlighted the key contributions of the 20–29 domain for IAPP self-assembly, often referred to as the amyloidogenic core ([Glenner et al., 1988]). The fact that the sequence from rodent IAPP (rIAPP) includes three β-breaker prolines within the 20-29 region, and is non-amyloidogenic and poorly toxic, further highlights the critical role of this segment ([Moriarty and Raleigh, 1999]; [Tomasello et al., 2014]).

[2] = Solubility and self-assembly of the IAPP12-17 fragment (CD, ThT, ANS, TEM); type: physicochemical
Protocol: (§1) Solutions were prepared by dissolving the peptide at a concentration of 50 μM in 20 mM Tris-HCl, pH 7.4, and were incubated at room temperature without agitation in 1.5 ml Eppendorf microtubes. For IAPP12-17, the lyophilized peptide was dissolved in 20 mM acetate pH 6.5 in the presence of 3% DMSO, or HFIP, at a final concentration of 500 μM and the peptide solution was incubated at 37 °C under constant rotational agitation.
(§2) At the indicating time of incubation, peptide solutions were diluted to 25 μM in presence of 40 μM ThT, or 25 μM 8-anilino-1-naphthalenesulfonic acid (ANS). Fluorescence was measured in 10-mm pathlength microcells using a PTI QuantaMaster spectrofluorometer. For ThT, excitation was set at 440 nm, and the emission spectrum from 450 to 550 nm was recorded. For ANS, the excitation was set at 355 nm, and the emission scan was recorded from 385 to 585 nm.
(§3) After incubation, peptide solutions were diluted in water to 25 μM and incorporated into a 2-mm path length quartz cell. For IAPP12-17, the solution was diluted to 150 μM. Far-UV CD spectra were recorded from 190 to 260 nm using a Jasco J-815 CD spectropolarimeter at 25°C. The wavelength step was set at 0.5 nm with an average time of 10 s per scan at each wavelength. Spectra were background-subtracted with buffer solution. Raw data were converted to mean residue ellipticity (MRE): MRE=Mean residue weight (g/mol)X CD signal (deg)/10 X pathlength (cm) X peptide concentration (g/mL)
(§4) After incubation, peptide solutions were diluted to 10 μM, or 100 μΜ for IAPP12-17, before being applied on glow-discharged carbon films on 300-mesh copper grids. Samples were adsorbed and negatively stained with 1.5% uranyl formate for 45 s. Images were recorded using a FEI Tecnai G2 Spirit Twin microscope operating at 120 kV and equipped with a Gatan Ultrascan scan 4,000 4k × 4k CCD camera system.

[3] = Peptide self-assembly under fully quiescent conditions (CD, ThT and ANS fluorescence, TEM, AFM); type: physicochemical; conditions: 50 μM peptide; for Assemblies observed by TEM after 48 h incubation / Overall effect of the substitution on amyloid formation, in words: 20 mM Tris-HCl pH 7.4, quiescent; for Assemblies observed by TEM after 48 h incubation: negative stain TEM; for Overall effect of the substitution on amyloid formation, in words: CD, ThT, ANS, TEM, compared with unmodified IAPP
Protocol: as §1, §2, §3, §4
After incubation, peptide solutions were diluted in 1% acetic acid to a concentration of 7.5 μΜ. […] Images were recorded using Veeco/Bruker multimode AFM instrument using ScanAsyst-air mode with a silicon tip (2–12 nm tip radius, 0.4 N/m force) on a nitride lever. Images were taken at 0.977 Hz and 512 scan/min.

INS-1E cells = assay: Cell viability by resazurin reduction; type: cell-based, Rat; conditions: freshly dissolved peptide up to 50 μM, 24 h, at least five assays
Protocol: Rat INS-1E cells were cultured in treated black-wall clear-bottom 96-well plates at a density of 25,000 cell/well in RPMI-1640 medium supplemented with 10% FBS, 2 mM L-glutamine, 100 U/ml penicillin, 100 μg/ml streptomycin, 10 mM HEPES, 1 mM sodium pyruvate and 50 μM β-mercaptoethanol. After 48 h of incubation at 37°C in 5% CO2, cells were treated with 50 μL of peptide freshly dissolved in 20 mM Tris-HCl, pH 7.4. […] Cell viability (%) was calculated from the ratio of the fluorescence of the treated cells to the vehicle-treated cells. Data of at least five assays performed with different peptide lots were averaged and expressed as the mean ± S.D. Statistical analysis was performed using Student’s t test, and statistically significant difference was established at (*) p < 0.05; (**) p < 0.005; (***) p < 0.0005. For Live/Dead viability assay, cells were plated in 12-well plates at density of 250,000 cell/well for 48 h before treatment with 25 μM peptide.

[4] = TFE titration by far-UV CD spectroscopy (helical folding); type: physicochemical; conditions: ellipticity at 222 nm, Tris-HCl 20 mM, TFE titration (0 to 30% TFE)
Protocol: as §3

Substance	Assemblies observed by TEM after 48 h incubation [3]	Overall effect of the substitution on amyloid formation, in words [3]	Cytotoxicity compared with unmodified IAPP, in words (INS-1E cells)	TFE-induced helical folding compared with unmodified IAPP, in words [4]	other results
ANFLV [pentapeptide corresponding to the segment 13-17 of IAPP, from a recent study]	–	–	–	–	Fibril formation of the 13-17 pentapeptide ([1]; several days of incubation, ref Rozniakowski et al., 2020): did not form fibrils
LANFLV [IAPP12-17, short C-amidated peptide encompassing the 12–17 segment (LANFLV) of IAPP]	–	–	–	–	ThT and ANS fluorescence of the aggregates ([2]; 500 μM peptide incubated at 37 °C, diluted to 25 μM with 40 μM ThT or 25 μM ANS): ThT and ANS negative; Assemblies observed by TEM after 7 days incubation ([2]; 500 μM peptide, 20 mM acetate pH 6.5, 3% HFIP or 3% DMSO, 37 °C, constant agitation, longer fibrils with HFIP): laterally aligned rod-like fibrils; Secondary structure over incubation time (far-UV CD) ([2]; 500 μM peptide, 20 mM acetate pH 6.5, 3% HFIP, 37 °C, constant rotary agitation): mainly a random coil secondary structure after its solubilization, which evolves into β-sheet after prolonged incubation times; Solubility, in words ([2]; lyophilized/monomerized peptide, needed HFIP or DMSO before dilution in 20 mM acetate buffer pH 6.5): poor solubility
F15G: full-length IAPP with Gly at position Phe15 (KCNTATCATQRLANGLVHSSNNFGAILSSTNVGSNTY; disulfide 2-7; ends not checked; UniProt P10997 34-70, looked up, variant F15G)	no aggregates could be detected	delayed IAPP amyloid formation	significantly reduced IAPP cytotoxicity	destabilizes the propensity of IAPP to adopt an α-helix	Assemblies observed by TEM after 168 h (7 days) incubation ([3]; 20 mM Tris-HCl pH 7.4, room temperature, no agitation, 168 h): some partially dispersed amyloid fibrils
rIAPP: rodent IAPP, includes three β-breaker prolines within the 20-29 region	–	–	–	–	Amyloidogenicity of rodent IAPP ([1]; ref Moriarty and Raleigh, 1999, Tomasello et al., 2014): non-amyloidogenic
L16G: full-length IAPP with Gly at position Leu16 (KCNTATCATQRLANFGVHSSNNFGAILSSTNVGSNTY; disulfide 2-7; ends not checked; UniProt P10997 34-70, looked up, variant L16G)	Oligomer-like structures	delayed IAPP amyloid formation	significantly reduced IAPP cytotoxicity	destabilizes the propensity of IAPP to adopt an α-helix	–
N14G: full-length IAPP with Asn14 substituted by Gly (KCNTATCATQRLAGFLVHSSNNFGAILSSTNVGSNTY; disulfide 2-7; ends not checked; UniProt P10997 34-70, looked up, variant N14G)	short, less defined, and twisted	–	significantly reduced IAPP cytotoxicity; also recorded: poorly toxic for pancreatic cells, even at 50 μM	destabilizes the propensity of IAPP to adopt an α-helix	Secondary conformation / conformational transition over incubation (far-UV CD), in words ([3]; 20 mM Tris-HCl pH 7.4, room temperature, fully quiescent, up to 7 days): delayed the random coil-to-β-sheet shift
